Experiment [1] has as its target recombinant human BMP1 protein (human) (UniProt P13497). Kind of experiment: enzyme inhibition kinetics.
Experiment [2] has as its target Xenopus Crescent-Flag (Xenopus laevis). Briefly: SPR.

Experimental findings from publication PMC3088358 are described below.

On to Xenopus Crescent-Flag (natural protein), for which the Ki in experiment [1] worked out at 59 nM.
“recombinant human BMP1 protein (from UniProt P13497 23-986) (enzyme)” yielded a Kd in experiment [2] of 11 nM.
